Consider 1 substance from publication PMC8050864.

Experiment [1] deals with PFV IN(ΔCTD) intasome: full-length PFV IN(K120E) at the inner protomers, PFV IN(D273K, ΔCTD) at the outer protomers (prototype foamy virus). Briefly: pull-down.
Experiment [2] has as its target FL PFV intasome (tetramer of full-length prototype foamy virus integrase bound to two viral DNA ends) (prototype foamy virus). Put plainly: pull-down.

Turning to “601 nucleosome treated with trypsin to remove the histone tails (from UniProt P04908 1-130; O60814 1-126; P68431 1-136; P62805 1-103) (complex)”, the results for the percent of the lane's Coomassie signal in the TL H4 band on the beads in experiment [1] and in experiment [2] were 2.5% and 11.2%, respectively.
